Laboratory results published in the nanobody polyreactivity screen of Harvey et al. (2022).

Assay: yeast display, Sf9 membrane polyspecificity reagent, FACS + sequencing; frameworks hold sequencing errors
In short: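 Galactose induction of a Saccharomyces cerevisiae BJ5465 synthetic nanobody display library ran 36–48 hours. The cells were then stained for 1 hour at 4 °C with 10% biotinylated, detergent-solubilized Sf9 membrane reagent, pulled down on streptavidin microbeads and FACS-sorted into low and high (top ~1%) gates on expression and reagent-binding fluorescence. Labels for polyreactivity follow the gate of origin.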

Sequence: QVQLVESGGGLVQAGGSLRISCAASGFTFSQYAMGRYRQAPGKERELVAAISVSGGTTYYADSVKGRFTISRDNAKNTVYLQMNSLKPEDTAVYYCDARTPFSSSPYVNTSGYYYWGQGSQVTVSS
- polyreactivity (PSR sort gate): high polyreactivity

Sequence: QVQLVESGGGLVQAGGSLRFSCAASGSIFYRNAMGWDRQAPGKEREMVAAISASSGRTYYADSVKGRFTISRDNAKNTVYLQMNSLKPEDTAVYYCAVRPYRSAGGSVTRGAYYYWGQGTQVTVSS
- polyreactivity (PSR sort gate): high polyreactivity

Sequence: QVQLVESGGGLVQAGGSLRLSCAASGSIFASNTMGWYRQAPGKERELVAGITKIGSSTYYADSVKGRFTISRDNAKNTVYLQMNSLKPEDTAVYYCAAGAWRGPYSGYYYWGQGTQVTVST
- polyreactivity (PSR sort gate): low polyreactivity

Sequence: QVQLVESGGGLVQAGGSLRLSCAASGIIFTWYAMGWYRQAPGKERELVAAISGSGDITYYADSVKGRFTSSRDNAKNTVYLQMNSLKPEDTAVYYCAADPWTYWEDYDYWGQGTQVTVSS
- polyreactivity (PSR sort gate): low polyreactivity

Sequence: QVQLVESGGGLVQAGGSLRLSCAASGFTIVPYAMGWYRQAPGKERELVAAISRRGSRTYYADSVKGRFTISRDNAKNTVYLQMNSLKPEDTAVYYCAAKLSAVKAAYDYWGQGTQVTVSS
- polyreactivity (PSR sort gate): high polyreactivity

Sequence: QVQLVESGGGLVQAGGSLRLSCASSGLIYHRNAMGWYRQAPGKERELVAAITKTGGGTYYADSVKGRFTISRDNAKNTVYLQMNSLKPEDTAVYYCAADTQRTFYYWGQGTQVTVSS
- polyreactivity (PSR sort gate): low polyreactivity

Sequence: QVQLVESGGGLVQAGGSLRLSCAASGRTFYRYAMGWYRQAPGKERELVAAISGSGTSTSYADSVKGRFTISRDNAKNTVYLQMNSLKPEDTAVYYCAATYYVYYYSRYYYWGQGTQVTVSS
- polyreactivity (PSR sort gate): high polyreactivity

Sequence: QVQLVESGGGLVQAGGSLRLSCAASGFTFESNAIGWYRQAPGKERELVAAISSSGGSTYYADSVKGRFTISRDNAKNTVYLQMNSLKPEDTAVYYCNAYSLYYGGYDYWGQGTQVTVSS
- polyreactivity (PSR sort gate): high polyreactivity

Sequence: LVQLVESGGALVQAGGSLRLSCAASGLIFYDYAMGWYRQAPGNDRELVAAISKGGGSTYYADSVKGRFTISRDYAKNSVYLQMNSLNTEDTAVYYGAASTSHTTDTRYDYWGQGTQVTVSS
- polyreactivity (PSR sort gate): low polyreactivity

Sequence: PVQLVESGGGLVQAGGSLRLSCAASGFTFTRYVMGWYRQAPGKERELVAAISGSGGSTNYADSVKGRFTISRDNAKNTVSLQMISLKPEDTAVYYCADRFVGSRYRFDYWGQGTQVTVSS
- polyreactivity (PSR sort gate): high polyreactivity

Sequence: QVPLVESGGGLVQAGGSLRLSCAASGRTFPSNMGWYRQAPGKERELVAAISWRGGSTNYADSVKGRFTISRDNAKNTVYLQMNSLKPEDTAVYYCNARYNTQRYRFLVQGDYWGQGTQVTVSS
- polyreactivity (PSR sort gate): high polyreactivity

Sequence: QVQLVESGGGLVQAGGSHRLSCAASGFILAYYAMGWYRQAPGKERELVASINRSGGSTYYADSVKGRFTISRDNAKNTVYFQMNSLKPEDTAVHYCAHTNRGDGQWWYRYYYWGQGTQVTVSS
- polyreactivity (PSR sort gate): high polyreactivity

Sequence: QVQLVESGGGLVQAGGSLRLSCAASGRTFRRYAMGWYRQAPGKERELVAAITSGGDTYYADSVKGRFTISRDNAKNTVYLQMNSLKPEDTAVYYCNAASVTRRTGIRAVDFDYWGQGTQVTVSS
- polyreactivity (PSR sort gate): high polyreactivity

Sequence: QVQLVESGGGLVQAGGSLGLSCAASGFTVYRYAMGWSRQAPGKERELVARTYYADSVKRRFTISRDNAKNTVYLQMNSLKPEDTAVYYCNIDLELEYRYEYWGQGTQVTVSS
- polyreactivity (PSR sort gate): low polyreactivity

Sequence: QVQLVESGRGLVQAGGSLRLSCAASGSIFGGNGRGWSRQAPGKERELVAAITYSGGSTYYADSVKGRFTISRDNAKNTVYFQMNSLKPEDTAVYYCAKPSRVSIGYDYWGQGTQVTVSS
- polyreactivity (PSR sort gate): low polyreactivity

Sequence: QVQLVESGGGIVPAGGSLRLSCAASGRSFYNYAMGWYRQAPGKERELVASISGIGGTTYYADSVKGRFTISRDNAKNTVYFQMNSLKPEDTAVYYCAARLYNWRRYGYWGQRTQVTVSS
- polyreactivity (PSR sort gate): high polyreactivity

Sequence: QVQLVESGGGLVQAGGSLRLSCAASGFTSRYVMGWYRQAPGKERELVASISRSGGSTYYADSVKGRFTISRDNAKNTVYLQMNSLKPEDTAVYYCAALGLSYSSRYYHWQNEFDYWGQGSQVTVSS
- polyreactivity (PSR sort gate): high polyreactivity

Sequence: QVQLVESAGGLVQAGGSLRLSCAASGSTIYPNAMGWYRQAPGKERELVAVISSGGSTYYADSVKGRFTISRDNAKNTVYLQMNSLKPEDTAVYYCADERYYFPRSYRYGYWGQGTQVTVSS
- polyreactivity (PSR sort gate): low polyreactivity

Sequence: QVQLVESGGGLVQAGGSLRLSCAASGLIFGPYAVGWYRQAPGKERELVAGISRGGSTYYADSVKGRFTISRDNAKKTVYLQMNSLKPEDTAVYYCAASRRYRGVNRPGDYWGQGTQVTVSS
- polyreactivity (PSR sort gate): high polyreactivity

Sequence: QVQLVESGGGLVQAGGSLRLSCAASGFTFGTNAMGWYRQAPGKERELVATISARGARTNYADSVKGRFTISRDNAKNTVYLQMNSLKPEDTAVYYCAADPGPHRYSYDYWGQGTQVTVSS
- polyreactivity (PSR sort gate): high polyreactivity

Sequence: QVQLVESGVGLVQAGGSLRLSSAASGFTFIYYPMGWYRPAPGKERELVAAITSGGNTYYADSVKGRFTISRDNAKNSVYFQMNSLKPEDTAVYYCNKVPHREWVGGYDYWGQGTQVTVSS
- polyreactivity (PSR sort gate): low polyreactivity

Sequence: QVQLVESGGCLVQAGGRLRISSAASGSIFAINDIGWYRQAPGKERELVAAIRSGGRTYYADSVKGRFTISRDNAKNTVYLQMNSLKPEYTAVYYCNAGGKWIGSDNWGQGTQVTVSS
- polyreactivity (PSR sort gate): high polyreactivity

Sequence: QVQLVESGGGLVQAGGSLRLSCAASGFTLKYYAMGWYRQAPGKERELVAAISSGDSTNYADSVKGRFTISRDNAKNTVYLQMNSLKPEDTAVYYCNTRYPSSSYYYWGQGTQVTVSS
- polyreactivity (PSR sort gate): low polyreactivity

Sequence: QVQLVESGGGLDQAGGSLRLSCAASGITFRYYAMGWYRQAPGKERELVATISRGVRTNYADSVKGRFTISRDNAKNTVYLQMNSLKPEDTAVYYCNADYASARRYDYWGQGTQVTVSS
- polyreactivity (PSR sort gate): high polyreactivity

Sequence: QVQLVESGGGLVQAGGSLRLSCAASGRIFIWYGMGWYRQAPGKERELVADISSTGSTNYADSVKGRFTISRDNAKNTVYLQMNSLKPEDTAVYYCAADPETPYYTTYDYDYWGQGTQVTVSS
- polyreactivity (PSR sort gate): low polyreactivity

Sequence: QVQLVESGGGLVQAGGSLRLSCAASGYIFVIYAMGWYRQAPGKERELVAAISWGGGSTYYADSVKGRFTISRDNAKNTVYLQMNSLKPEATAVYYCAARGWVVGRISVPGEYWGQGTQVTVSS
- polyreactivity (PSR sort gate): high polyreactivity

Sequence: QVQLVESGGGLVQAGGSLRLSCAASGGTIYLNAMGWYRQAPRKERELVAGITWGGGRTYYADSVKGRFTISRDNAKNTVYLQMNSLKPEDTAVYYCASGAWRGPYSGYYYWGQGTQVTVSS
- polyreactivity (PSR sort gate): low polyreactivity

Sequence: QVQLVETGGGLVQAGGSLRLSCAASGSTFSRYPMGWYRQAPGKEWELVAAITGTGGRTYYADSVKGRFTISRDNEKNTVYLLMNSLKPEDTAVYYCAAQRWTVKYNYWGQGTQVTVSS
- polyreactivity (PSR sort gate): high polyreactivity

Sequence: QVQLVESGGGLVQAGGSLRLRCAASGRTFPSYTMGWYRQAPGKERELVAAITWTGGSTYYADSVKGRFTISRDNAKNTVYLQMNSLKPEDTAVYYCADYDYWGQGTQVTVSS
- polyreactivity (PSR sort gate): low polyreactivity

Sequence: QVQLVESGGGLVQAGGSLRLSCAASGSTFGGYAMGWYRQAPGKERELVAAISGSGVRTYYADSVKGRFTISRDNAKNTVYLQMNSLKPEDTAVYYCAKRVRYPGDRYYYWGQGTQVTVSS
- polyreactivity (PSR sort gate): high polyreactivity

Sequence: QVQLVESGGGLVQAGGSLRLSCAASGSIFDVYDMGWYRQAPGKERELVASISDSGSSTYYADSVKGRFTISRDNAKNTVYLQMNSLKPEDTAVYYCAAGYYVDRSIYNYWGQGTQVTVSS
- polyreactivity (PSR sort gate): low polyreactivity

Sequence: QVQLVESGGGLVQAGGSLRLSCAASGFTFSRYAMVWYRKAPGKDRELVAVISSSGSRTYYADSVKGRFSISRHNAKNTVHLQMNSLQPEDTAVYYGAAKSYTVTAYEYWGQGTQVTVSS
- polyreactivity (PSR sort gate): high polyreactivity
